# According to patent publication US20060183664A1, “Pharmaceutical composition for delayed hypersensitivity” (priority 2001, published 2006):
# T1: PAR-2 (Homo sapiens, UniProt P55085)
# T1 construct: expressed in transfected cells; host or cells: NCTC2544 cells
# T1 sequence (P55085 26-397): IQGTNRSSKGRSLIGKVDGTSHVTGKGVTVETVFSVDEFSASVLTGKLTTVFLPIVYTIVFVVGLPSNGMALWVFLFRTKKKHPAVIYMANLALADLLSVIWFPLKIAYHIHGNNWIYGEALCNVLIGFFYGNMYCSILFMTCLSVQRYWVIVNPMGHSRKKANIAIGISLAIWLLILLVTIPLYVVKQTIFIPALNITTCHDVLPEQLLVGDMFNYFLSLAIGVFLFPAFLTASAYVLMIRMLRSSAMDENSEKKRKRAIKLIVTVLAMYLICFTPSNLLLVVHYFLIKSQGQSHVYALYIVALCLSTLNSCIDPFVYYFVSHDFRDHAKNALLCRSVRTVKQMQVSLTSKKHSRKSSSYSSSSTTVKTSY
# B1: trypsin inhibitor derived from soybeans: a trypsin inhibitor derived from soybeans, used as subject substance in the PAR-2 inositol phosphate assay (protein, UniProt P01070 25-205, looked up)
# Trypsin inhibitor A: DFVLDNEGNPLENGGTYYILSDITAFGGIRAAPTGNERCPLTVVQSRNELDKGIGTIISSPYRIRFIAEGHPLSLKFDSFAVIMLCVGIPTEWSVVEDLPEGPAVKIGENKDAMDGWFRLERVSDDEFNNYKLVFCPQQAEDDKCGDIGISIDHDDGTRRLVVSKNKPLVVQFQKLDKESL
# Target: T1, PAR-2
# Assay: Assay of PAR-2 activation using inositol phosphates as an indicator in NCTC2544 cells with stably high expression of PAR-2
# Format: cell-based
# Conditions: subject substance added 15 min before stimulation
# Text: The invention also provides a novel method for measuring PAR-2 activity. PAR-2 belongs to G-protein-coupled receptor (GPCR) family, and produces inositol phosphates as a second messenger upon activation of the receptor. Based on this mechanism, the effects of subject substances in activation of PAR-2 can be determined quantitatively by quantifying produced inositol phosphates in PAR2-expressing cells by an ion chromatography or the like.
# NCTC2544 cells with stably high expression of PAR-2 were cultured in the serum-free medium containing […]/ml of [^3H]-myo-inositol for 18 hours. Lithium chloride (final […]) was added 30 min before the stimulation, and subsequently cells were stimulated with trypsin (1 to 30 nM) or the PAR-2 agonist peptide, SLIGKV (10 to 300 μM). After 45 min the lipid component was extracted with methanol and separated using an anion exchanging resin (AG1-X, formate form). Then the yield of inositol phosphates was determined in a scintillation counter. The subject substance was added 15 min before the stimulation.
molecule,measurement,setting,value
B1,SLIGKV-mediated activation of PAR-2 (inositol phosphate production),stimulation with PAR-2 activating peptide SLIGKV,not affected
same,Trypsin-mediated activation of PAR-2 (inositol phosphate production),stimulation with trypsin,inhibited
